# Reference: ChEMBL document CHEMBL1153925, “Synthesis, characterization and biological activity of ring-substituted 6-benzylamino-9-tetrahydropyran-2-yl and 9-tetrahydrofuran-2-ylpurine derivatives” (Bioorg Med Chem, 2009)
# What was measured:
# Conditions in all cases: Zea mays
# [1] = substrate: O[C@@H]1[C@H](O)[C@H](O)CO[C@H]1n1cnc2c(NCc3ccccc3)ncnc21
# [2] = substrate: c1ccc(CNc2ncnc3c2ncn3C2CCCCO2)cc1
# [3] = substrate: Oc1cccc(CNc2ncnc3nc[nH]c23)c1
# [4] = substrate: c1ccc(CNc2ncnc3[nH]cnc23)cc1
# [5] = substrate: COc1ccc(CNc2ncnc3c2ncn3C2CCCCO2)cc1
# [6] = substrate: COc1cccc(CN)c1
# [7] = substrate: Oc1ccc(CNc2ncnc3c2ncn3C2CCCCO2)cc1
# [8] = substrate: Oc1cccc(CNc2ncnc3c2ncn3C2CCCCO2)c1
# [9] = substrate: NCc1ccc(O)cc1
# [10] = substrate: CC(C)=CCNc1ncnc2[nH]cnc12
# [11] = substrate: COc1ccc(CN)cc1
# [12] = substrate: COc1cccc(CNc2ncnc3c2ncn3C2CCCCO2)c1
# [13] = substrate: c1ccc(CNc2ncnc3c2ncn3C2CCCCO2)cc1; remark: listed apart in the source
# [14] = substrate: Oc1cccc(CNc2ncnc3nc[nH]c23)c1; remark: listed apart in the source
# [15] = substrate: c1ccc(CNc2ncnc3[nH]cnc23)cc1; remark: listed apart in the source
# [16] = substrate: Oc1ccc(CNc2ncnc3c2ncn3C2CCCCO2)cc1; remark: listed apart in the source
# [17] = substrate: Oc1cccc(CNc2ncnc3c2ncn3C2CCCCO2)c1; remark: listed apart in the source
# [18] = biological target: 6-(4-hydroxybenzylamino)purine
# [19] = substrate: CC(C)=CCNc1ncnc2[nH]cnc12; remark: listed apart in the source
# 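Throughout, for Km: zea mays CKX1 produced in Pichia pastoris, enzyme activity followed as aldehyde formation detected with the 4-aminophenol method.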
protein,measurement,setting,value
"Cytokinin dehydrogenase 1 (Zea mays), Q9T0N8 (protein) MAVVYYLLLAGLIACSHALAAGTPALGDDRGRPWPASLAALALDGKLRTDSNATAAASTDFGNITSALPAAVLYPSSTGDLVALLSAANSTPGWPYTIAFRGRGHSLMGQAFAPGGVVVNMASLGDAAAPPRINVSADGRYVDAGGEQVWIDVLRASLARGVAPRSWNDYLYLTVGGTLSNAGISGQAFRHGPQISNVLEMDVITGHGEMVTCSKQLNADLFDAVLGGLGQFGVITRARIAVEPAPARARWVRFVYTDFAAFSADQERLTAPRPGGGGASFGPMSYVEGSVFVNQSLATDLANTGFFTDADVARIVALAGERNATTVYSIEATLNYDNATAAAAAVDQELASVLGTLSYVEGFAFQRDVAYAAFLDRVHGEEVALNKLGLWRVPHPWLNMFVPRSRIADFDRGVFKGILQGTDIVGPLIVYPLNKSMWDDGMSAATPSEDVFYAVSLLFSSVAPNDLARLQEQNRRILRFCDLAGIQYKTYLARHTDRSDWVRHFGAAKWNRFVEMKNKYDPKRLLSPGQDIFN",kcat,[1],0.218 s⁻¹
same,Km,[2],98.9 µM
same,kcat,[2],0.069 s⁻¹
same,Km,[3],24.4 µM
same,kcat,[3],0.244 s⁻¹
same,Km,[4],29.6 µM
same,kcat,[4],0.225 s⁻¹
same,kcat,[5],0.256 s⁻¹
same,kcat,[6],0.145 s⁻¹
same,Km,[7],33.8 µM
same,kcat,[7],0.195 s⁻¹
same,Km,[8],125 µM
same,kcat,[8],0.032 s⁻¹
same,Km,[9],5.5 µM
same,kcat,[9],0.871 s⁻¹
same,Km,[10],1.8 µM
same,kcat,[10],0.208 s⁻¹
same,kcat,[11],0.476 s⁻¹
same,kcat,[12],0.006 s⁻¹
same,kcat/Km,[13],0.0007
same,kcat/Km,[14],0.01
same,kcat/Km,[15],0.0076
same,kcat/Km,[16],5800 M⁻¹ s⁻¹
same,kcat/Km,[17],0.0003
same,kcat/Km,[18],0.158
same,kcat/Km,[19],0.116
